The term % inhibition denotes the change of the read-out against control, counted positive when it falls. Lower therefore signals a response near the control.

This assay has as its target CGS20. The assay is described as follows: competition: pancreastatin peptide (0.5 µg per tube) added in second incubation of CGS06/CGS20* IRMA.

B1: synthetic peptide corresponding to pancreastatin (SEQ ID NO:1 amino acids 250 to 301 of human CgA) (peptide)
peptide: GESRSEALAVDGAGKPGAEEAQDPEGKGEQEHSQQKEEEEEMAVVPQGLFRG
Regarding B1, the % inhibition was determined as 86%.
